This note sets out measurements from PMC10435562, “VEGF-B prevents excessive angiogenesis by inhibiting FGF2/FGFR1 pathway” (Signal Transduction and Targeted Therapy, 2023).

For orientation: Kd means the free concentration of one partner at which half of the binding sites on the other are occupied at equilibrium, for simple one-to-one binding. A low value points to tighter binding.

B4: Human VEGF-B167 (ligand, UniProt P49765-2 22-188, looked up)
chain: PVSQPDAPGHQRKVVSWIDVYTRATCQPREVVVPLTVELMGTVAKQLVPSCVTVQRCGGCCPDDGLECVPTGQHQVRMQILMIRYPSSQLGEMSLEEHSQCECRPKKKDSAVKPDSPRPLCPRCTQHHQRPDPRTCRCRCRRRSFLRCQGRGLELNPDTCRCRKLRR
notes: UniProt P49765 is printed for the VEGF-B167 peptides; Bought recombinant protein; source: bought: PeproTech (100-20B)

Test [1] deals with FGF2 (BFF-H4117, Acro Biosystems) (UniProt P09038). The experiment in a line: SPR; VEGF-B immobilised at 3820 RU on CM5 (the FGF2 surface is not described); FGFR1 DI (18.75-600 nM), DII (3.125-100 nM), DIII (12.5-400 nM), DII-III (25-800 nM) flowed at 10 µl/min. Background: In SPR one partner is held on a chip, and binding of the other changes the refractive index at the surface.
Sequence of FGF2 (BFF-H4117, Acro Biosystems) (UniProt P09038) (P09038 143-288): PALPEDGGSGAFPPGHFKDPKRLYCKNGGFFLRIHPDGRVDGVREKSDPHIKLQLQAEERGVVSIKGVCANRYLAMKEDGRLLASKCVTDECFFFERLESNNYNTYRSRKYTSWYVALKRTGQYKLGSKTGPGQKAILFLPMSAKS

Test [2] deals with B4. The test is described as above.
For test [3], the target named is B4. Kind of test: SPR; VEGF-B immobilised at 3820 RU on CM5 (the VEGF-C surface is not described); heterodimer proteins flowed at 1.875-60 nM, 10 µl/min. The note with it: both partners purified.
Test [4] concerns the target T1, FGF2 (BFF-H4117, Acro Biosystems) (UniProt P09038 143-288).
T1 construct: fibroblast growth factor 2 (basic FGF); Immobilised on the CM5 chip for SPR; also called basic FGF; fibroblast growth factor 2; source: bought: Acro Biosystems (BFF-H4117)
The experiment in a line: SPR; VEGF-B immobilised at 3820 RU on CM5 (the FGF2 surface is not described); FGFR1 DI (18.75-600 nM), DII (3.125-100 nM), DIII (12.5-400 nM), DII-III (25-800 nM) flowed at 10 µl/min. Particulars: both partners purified.

Test [5] addresses T2, FGFR1-Fc (Z03223, Genscript) (UniProt P11362 22-376).
T2 construct: fibroblast growth factor receptor 1 part of a bought Fc fusion; also called FGFR1 homodimer; FGFR1/FGFR1; source: bought: Genscript (Z03223)
T2 sequence (looked up): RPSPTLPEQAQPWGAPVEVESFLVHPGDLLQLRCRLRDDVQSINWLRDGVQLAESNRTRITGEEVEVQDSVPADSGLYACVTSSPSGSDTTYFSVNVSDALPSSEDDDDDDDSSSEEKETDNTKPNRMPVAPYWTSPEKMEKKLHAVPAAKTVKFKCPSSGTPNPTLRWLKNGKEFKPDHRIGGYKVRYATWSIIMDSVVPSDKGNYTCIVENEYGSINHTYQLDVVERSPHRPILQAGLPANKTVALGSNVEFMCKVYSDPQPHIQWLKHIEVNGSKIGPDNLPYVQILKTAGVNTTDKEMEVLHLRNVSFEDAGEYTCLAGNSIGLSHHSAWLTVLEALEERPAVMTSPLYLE
Kind of test: SPR; BIAcore 8000; VEGF-B, FGF2 or PlGF immobilised (5389, 1860, 4700 RU) on CM5 by amine coupling; FGFR1-Fc flowed at 12.5-400 nM, 30 µl/min; 1:1 binding model, KD = kd/ka. Particulars: both partners purified.

T1 sequence (P09038 143-288): as the sequence (P09038 143-288) above

For FGFR1 DII (domain or fragment), the Kd in test [1] is 71 nM; in test [2], 101 nM.

FGFR1 DII-III (domain or fragment): the Kd came out at 63 nM in test [1] and 49 nM in test [2].

For the molecule FGFR1 DIII (domain or fragment), the dissociation constant Kd in test [1] was found to be 43 nM; in test [2], 64 nM.

B1: VEGFR1 ECD-L-FGFR1 ECD (other)
chain: SKLKDPELSLKGTQHIMQAGQTLHLQCRGEAAHKWSLPEMVSKESERLSITKSACGRNGKQFCSTLTLNTAQANHTGFYSCKYLAVPTSKKKETESAIYIFISDTGRPFVEMYSEIPEIIHMTEGRELVIPCRVTSPNITVTLKKFPLDTLIPDGKRIIWDSRKGFIISNATYKEIGLLTCEATVNGHLYKTNYLTHRQTNTIIDVQISTPRPVKLLRGHTLVLNCTATTPLNTRVQMTWSYPDEKNKRASVRRRIDQSNSHANIFYSVLTIDKMQNKDKGLYTCRVRSGPSFKSVNTSVHIYDKAFITVKHRKQQVLETVAGKRSYRLSMKVKAFPSPEVVWLKDGLPATEKSARYLTRGYSLIIKDVTEEDAGNYTILLSIKQSNVFKNLTATLIVNVKPQIYEKAVSSFPDPALYPLGSRQILTCTAYGIPQPTIKWFWHPCNHNHSEARCDFCSNNEESFILDADSNMGNRIESITQRMAIIEGKNKMASTLVVADSRISGIYICIASNKVGTVGRNISFYITDVPNGFHVNLEKMPTEGEDLKLSCTVNKFLYRDVTWILLRTVNNRTMHYSISKQKMAITKEHSITLNLTIMNVSLQDSGTYACRARNVYTGEEILQKKEITIRDQEAPYLLRNLSDHTVAISSSTTLDCHANGVPEPQITWFKNNHKIQQEPGIILGPGSSTLFIERVTEEDEGVYHCKATNQKGSVESSAYLTVQGTSDKSNLERPSPTLPEQAQPWGAPVEVESFLVHPGDLLQLRCRLRDDVQSINWLRDGVQLAESNRTRITGEEVEVQDSVPADSGLYACVTSSPSGSDTTYFSVNVSDALPSSEDDDDDDDSSSEEKETDNTKPNRMPVAPYWTSPEKMEKKLHAVPAAKTVKFKCPSSGTPNPTLRWLKNGKEFKPDHRIGGYKVRYATWSIIMDSVVPSDKGNYTCIVENEYGSINHTYQLDVVERSPHRPILQAGLPANKTVALGSNVEFMCKVYSDPQPHIQWLKHIEVNGSKIGPDNLPYVQILKTAGVNTTDKEMEVLHLRNVSFEDAGEYTCLAGNSIGLSHHSAWLTVLEALEERPAVMTSPLYLE
In turn, B1 came in with a dissociation constant (Kd) in test [3] of 1.4 nM.

B2: FGFR1 DI (domain or fragment)
chain: PTLPEQAQPWGAPVEVESFLVHPGDLLQLRCRLRDDVQSINWLRDGVQLAESNRTRITGEEVEVQDSVPADSGLYACVTSSPSGSDTTYFSVNVS
In the case of B2, the Kd in test [4] stood at 245 nM; in test [2] (both partners purified), 532 nM.

B3: FGFR1 ECD-L-VEGFR1 ECD (other)
chain: RPSPTLPEQAQPWGAPVEVESFLVHPGDLLQLRCRLRDDVQSINWLRDGVQLAESNRTRITGEEVEVQDSVPADSGLYACVTSSPSGSDTTYFSVNVSDALPSSEDDDDDDDSSSEEKETDNTKPNRMPVAPYWTSPEKMEKKLHAVPAAKTVKFKCPSSGTPNPTLRWLKNGKEFKPDHRIGGYKVRYATWSIIMDSVVPSDKGNYTCIVENEYGSINHTYQLDVVERSPHRPILQAGLPANKTVALGSNVEFMCKVYSDPQPHIQWLKHIEVNGSKIGPDNLPYVQILKTAGVNTTDKEMEVLHLRNVSFEDAGEYTCLAGNSIGLSHHSAWLTVLEALEERPAVMTSPLYLESKLKDPELSLKGTQHIMQAGQTLHLQCRGEAAHKWSLPEMVSKESERLSITKSACGRNGKQFCSTLTLNTAQANHTGFYSCKYLAVPTSKKKETESAIYIFISDTGRPFVEMYSEIPEIIHMTEGRELVIPCRVTSPNITVTLKKFPLDTLIPDGKRIIWDSRKGFIISNATYKEIGLLTCEATVNGHLYKTNYLTHRQTNTIIDVQISTPRPVKLLRGHTLVLNCTATTPLNTRVQMTWSYPDEKNKRASVRRRIDQSNSHANIFYSVLTIDKMQNKDKGLYTCRVRSGPSFKSVNTSVHIYDKAFITVKHRKQQVLETVAGKRSYRLSMKVKAFPSPEVVWLKDGLPATEKSARYLTRGYSLIIKDVTEEDAGNYTILLSIKQSNVFKNLTATLIVNVKPQIYEKAVSSFPDPALYPLGSRQILTCTAYGIPQPTIKWFWHPCNHNHSEARCDFCSNNEESFILDADSNMGNRIESITQRMAIIEGKNKMASTLVVADSRISGIYICIASNKVGTVGRNISFYITDVPNGFHVNLEKMPTEGEDLKLSCTVNKFLYRDVTWILLRTVNNRTMHYSISKQKMAITKEHSITLNLTIMNVSLQDSGTYACRARNVYTGEEILQKKEITIRDQEAPYLLRNLSDHTVAISSSTTLDCHANGVPEPQITWFKNNHKIQQEPGIILGPGSSTLFIERVTEEDEGVYHCKATNQKGSVESSAYLTVQGTSDKSNLE
With B3, in test [3], the Kd stood at 3.7 nM.

In test [5], B4 showed an equilibrium dissociation constant (Kd) of 17 nM.
